Reference: US20190142963A1 (INDIANA UNIVERSITY RESEARCH AND TECHNOLOGY, published 2019)
Where a chain is given by its changes, count along the chain named. Numbers in names are those of the source. Where two headings read alike, the source gives them in different places. Non-standard residues stand in square brackets, D forms with d. No end group written: not given here.

Key:
Assay in all cases: cell-based or functional assay
human Klotho β [1] = molecular target: T1, human Klotho β (human, UniProt Q86Z14 1-1044)
T1 sequence (looked up): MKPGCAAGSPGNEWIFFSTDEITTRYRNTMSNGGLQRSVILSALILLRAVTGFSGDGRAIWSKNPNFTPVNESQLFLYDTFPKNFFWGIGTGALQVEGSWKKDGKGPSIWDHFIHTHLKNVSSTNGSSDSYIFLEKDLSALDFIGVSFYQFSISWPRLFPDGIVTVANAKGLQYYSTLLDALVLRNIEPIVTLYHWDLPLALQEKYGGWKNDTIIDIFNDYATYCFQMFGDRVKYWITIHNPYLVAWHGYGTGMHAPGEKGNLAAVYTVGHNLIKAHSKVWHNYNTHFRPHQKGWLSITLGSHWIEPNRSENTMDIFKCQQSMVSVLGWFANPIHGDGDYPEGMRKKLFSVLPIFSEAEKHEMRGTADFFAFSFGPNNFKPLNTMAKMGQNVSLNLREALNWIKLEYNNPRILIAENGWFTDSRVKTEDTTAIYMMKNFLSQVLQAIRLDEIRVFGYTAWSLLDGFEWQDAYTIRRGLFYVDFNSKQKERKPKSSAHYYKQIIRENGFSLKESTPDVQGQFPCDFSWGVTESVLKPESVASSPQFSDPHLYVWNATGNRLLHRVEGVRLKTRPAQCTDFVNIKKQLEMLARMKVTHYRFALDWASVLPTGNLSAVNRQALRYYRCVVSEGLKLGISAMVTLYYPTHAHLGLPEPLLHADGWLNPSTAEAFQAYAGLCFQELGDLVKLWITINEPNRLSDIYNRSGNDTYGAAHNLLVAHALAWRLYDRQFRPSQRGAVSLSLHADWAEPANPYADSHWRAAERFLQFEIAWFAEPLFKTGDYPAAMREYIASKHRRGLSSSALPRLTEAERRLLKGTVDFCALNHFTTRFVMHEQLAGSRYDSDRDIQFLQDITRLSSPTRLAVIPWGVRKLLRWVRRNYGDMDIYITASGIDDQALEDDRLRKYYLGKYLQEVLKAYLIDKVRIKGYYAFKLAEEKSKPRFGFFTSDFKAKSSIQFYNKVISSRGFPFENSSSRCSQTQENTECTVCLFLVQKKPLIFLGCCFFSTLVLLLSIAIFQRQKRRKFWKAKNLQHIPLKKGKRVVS

mouse Klotho β (mouse) = mouse Klotho β (mouse) (UniProt Q99N32)
human Klotho β [2] = molecular target: T1, human Klotho β; remark: listed apart in the source
human Klotho β [3] = molecular target: T1, human Klotho β; remark: listed apart in the source
human Klotho β [4] = molecular target: T1, human Klotho β; remark: listed apart in the source
human Klotho β [5] = molecular target: T1, human Klotho β; remark: listed apart in the source
human Klotho β [6] = molecular target: T1, human Klotho β; remark: listed apart in the source
human Klotho β [7] = molecular target: T1, human Klotho β; remark: listed apart in the source

Sequence of mouse Klotho β (mouse) (Q99N32 whole entry): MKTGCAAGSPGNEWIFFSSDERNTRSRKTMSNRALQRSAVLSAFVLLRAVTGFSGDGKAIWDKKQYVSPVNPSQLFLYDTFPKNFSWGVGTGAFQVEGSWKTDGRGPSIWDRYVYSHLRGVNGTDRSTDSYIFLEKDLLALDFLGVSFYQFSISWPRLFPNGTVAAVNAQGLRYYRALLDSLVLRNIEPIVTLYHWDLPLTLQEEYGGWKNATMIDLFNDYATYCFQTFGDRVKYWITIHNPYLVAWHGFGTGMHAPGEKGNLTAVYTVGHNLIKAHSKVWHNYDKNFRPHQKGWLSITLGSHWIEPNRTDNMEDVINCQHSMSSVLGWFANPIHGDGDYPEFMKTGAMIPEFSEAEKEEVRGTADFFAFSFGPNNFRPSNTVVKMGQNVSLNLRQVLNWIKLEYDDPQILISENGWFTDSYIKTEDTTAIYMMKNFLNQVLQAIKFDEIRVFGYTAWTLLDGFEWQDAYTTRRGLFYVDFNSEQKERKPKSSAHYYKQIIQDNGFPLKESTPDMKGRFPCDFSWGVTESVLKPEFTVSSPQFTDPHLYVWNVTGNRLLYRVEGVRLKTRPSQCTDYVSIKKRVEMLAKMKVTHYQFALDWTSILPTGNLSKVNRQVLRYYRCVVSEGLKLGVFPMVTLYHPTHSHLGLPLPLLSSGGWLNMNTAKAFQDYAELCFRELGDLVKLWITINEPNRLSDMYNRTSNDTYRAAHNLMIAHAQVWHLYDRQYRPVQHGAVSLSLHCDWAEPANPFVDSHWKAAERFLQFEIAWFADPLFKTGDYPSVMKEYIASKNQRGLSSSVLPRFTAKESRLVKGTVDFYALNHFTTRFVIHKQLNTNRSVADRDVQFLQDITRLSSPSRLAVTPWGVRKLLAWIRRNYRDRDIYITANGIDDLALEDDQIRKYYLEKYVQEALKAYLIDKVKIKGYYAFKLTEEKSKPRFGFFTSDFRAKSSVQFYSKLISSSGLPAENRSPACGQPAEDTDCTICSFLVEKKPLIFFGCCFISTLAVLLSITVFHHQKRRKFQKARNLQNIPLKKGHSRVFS

FGF19 (from UniProt O95750 25-216) (ligand)
% maximal activity, Erk1/2 phosphorylation in 293T HEK hKLB cells (FIG. 9B) (human Klotho β [1]): 27%
EC-50 of Erk1/2 phosphorylation in 293T HEK hKLB cells (FIG. 9B) (human Klotho β [1]): 148 nM
potency (agonism) in cells that overexpressed human KLB (FIG. 11A) (human Klotho β [1]): 65.8
potency (agonism) in cells that overexpressed mouse KLB (FIG. 11B) (mouse Klotho β (mouse)): 25.7

PPAVGSSDPLSMVGPSQGRSPSYAS [FGF21 25mer A3]
IC-50 of antagonism of FGF21 (pErk1/2, 293 HEK hKLB cells) (human Klotho β [2]): 1.5 µM
% max activity of antagonism of FGF21 (pErk1/2, 293 HEK hKLB cells) (human Klotho β [3]): 87.8%
IC-50 of antagonism of FGF21 (pErk1/2, 293 HEK hKLB cells) (human Klotho β [3]): 2280 nM

LETDSMDPF[dS]LVTGLEAVRSPSFES-NH2 [FGF19 S10]
IC50 of antagonism of FGF21 (assay of Example 1) (human Klotho β [4]): 194 nM

PPDVGSSDPASMVGPSQGRSPSYAS [FGF21 25mer A10]
IC-50 of antagonism of FGF21 (pErk1/2, 293 HEK hKLB cells) (human Klotho β [2]): 2.75 µM
% max activity of antagonism of FGF21 (pErk1/2, 293 HEK hKLB cells) (human Klotho β [3]): 76%
IC-50 of antagonism of FGF21 (pErk1/2, 293 HEK hKLB cells) (human Klotho β [3]): 3320 nM

PPDVGSSDPLSMAGPSQGRSPSYAS [FGF21 25mer A13]
IC-50 of antagonism of FGF21 (pErk1/2, 293 HEK hKLB cells) (human Klotho β [2]): 4.6 µM
% max activity of antagonism of FGF21 (pErk1/2, 293 HEK hKLB cells) (human Klotho β [3]): 87.9%
IC-50 of antagonism of FGF21 (pErk1/2, 293 HEK hKLB cells) (human Klotho β [3]): 2110 nM

PPDVGSSDPLSMVGPSQARSPSYAS [FGF21 25mer A18]
% max activity of antagonism of FGF21 (pErk1/2, 293 HEK hKLB cells) (human Klotho β [3]): 103%
IC-50 of antagonism of FGF21 (pErk1/2, 293 HEK hKLB cells) (human Klotho β [3]): 139 nM
IC-50 of antagonism of FGF21 (pErk1/2, 293 HEK hKLB cells) (human Klotho β [5]): 0.15 µM

PPDVGSSDPL[dS]MVGPSQGRSPSYAS-NH2 [FGF21 D11]
% Activity vs C25 (human Klotho β [6]): 596%
IC50 of antagonism of FGF21 (assay of Example 1) (human Klotho β [6]): 57.3 nM
IC50 of antagonism of FGF21 (assay of Example 1) (human Klotho β [4]): 19.9 nM

B1: FGF21 (ligand)
chain: HPIPDSSPLLQFGGQVRQRYLYTDDAQQTEAHLEIREDGTVGGAADQSPESLLQLKALKPGVIQILGVKTSRFLCQRPDGALYGSLHFDPEACSFRELLLEDGYNVYQSEAHGLPLHLPGNKSPHRDPAPRGPARFLPLPGLPPALPEPPGILAPQPPDVGSSDPLSMVGPSQGRSPSYAS
% maximal activity, Erk1/2 phosphorylation in 293T HEK hKLB cells (FIG. 9A) (human Klotho β [7]): 100%

B2: FGF21 D164A (ligand)
chain: B1 chain with D164A
% maximal activity, Erk1/2 phosphorylation in 293T HEK hKLB cells (FIG. 9A) (human Klotho β [7]): 6%

B3: FGF21 P171A (ligand)
chain: B1 chain with P171A
% maximal activity, Erk1/2 phosphorylation in 293T HEK hKLB cells (FIG. 9A) (human Klotho β [7]): 100%

PPDVGSSDPLSMVGPSQGRSPAYAS [FGF21 25mer A22]
IC-50 of antagonism of FGF21 (pErk1/2, 293 HEK hKLB cells) (human Klotho β [2]): 0.67 µM
% max activity of antagonism of FGF21 (pErk1/2, 293 HEK hKLB cells) (human Klotho β [3]): 78.5%
IC-50 of antagonism of FGF21 (pErk1/2, 293 HEK hKLB cells) (human Klotho β [3]): 752 nM

PPDVGASDPLSMVGPSQGRSPSYAS [FGF21 25mer A6]
IC-50 of antagonism of FGF21 (pErk1/2, 293 HEK hKLB cells) (human Klotho β [2]): 2.44 µM
% max activity of antagonism of FGF21 (pErk1/2, 293 HEK hKLB cells) (human Klotho β [3]): 89.2%
IC-50 of antagonism of FGF21 (pErk1/2, 293 HEK hKLB cells) (human Klotho β [3]): 2650 nM

B4: FGF21-19 K194A (ligand)
chain: HPIPDSSPLLQFGGQVRQRYLYTDDAQQTEAHLEIREDGTVGGAADQSPESLLQLKALKPGVIQILGVKTSRFLCQRPDGALYGSLHFDPEACSFRELLLEDGYNVYQSEAHGLPLHLPGNKSPHRDPAPRGPARFLPLPGLPPALPEPPGILAPQPLETDSMDPFGLVTGLEAVRSPSFEA
potency as agonist relative to native FGF21 (human Klotho β [7]): ~5 fold

PPDVGSSDPLSMVGPSQGRSPSAAS [FGF21 25mer A23]
IC-50 of antagonism of FGF21 (pErk1/2, 293 HEK hKLB cells) (human Klotho β [2]): 4.16 µM
% max activity of antagonism of FGF21 (pErk1/2, 293 HEK hKLB cells) (human Klotho β [3]): 73.6%
IC-50 of antagonism of FGF21 (pErk1/2, 293 HEK hKLB cells) (human Klotho β [3]): 3980 nM

PPDVGSSDPLSMVGPSQGRAPSYAS [FGF21 25mer A20]
IC-50 of antagonism of FGF21 (pErk1/2, 293 HEK hKLB cells) (human Klotho β [2]): 2.21 µM
% max activity of antagonism of FGF21 (pErk1/2, 293 HEK hKLB cells) (human Klotho β [3]): 73.5%
IC-50 of antagonism of FGF21 (pErk1/2, 293 HEK hKLB cells) (human Klotho β [3]): 3230 nM

PPDVGSSDPLSMVGPSQGRSPSYAA [FGF21 25mer A25]
% max activity of antagonism of FGF21 (pErk1/2, 293 HEK hKLB cells) (human Klotho β [3]): 99%
IC-50 of antagonism of FGF21 (pErk1/2, 293 HEK hKLB cells) (human Klotho β [3]): 45 nM
IC-50 of antagonism of FGF21 (pErk1/2, 293 HEK hKLB cells) (human Klotho β [5]): 0.06 µM

PPDVGSSDPLSMVGPSQGASPSYAS [FGF21 25mer A19]
% max activity of antagonism of FGF21 (pErk1/2, 293 HEK hKLB cells) (human Klotho β [3]): 100%
IC-50 of antagonism of FGF21 (pErk1/2, 293 HEK hKLB cells) (human Klotho β [3]): 102 nM
IC-50 of antagonism of FGF21 (pErk1/2, 293 HEK hKLB cells) (human Klotho β [5]): 0.1 µM

LETDSMDPF[dS]LVTGLEAVRSPSFEA-NH2 [FGF19 S10A26]
IC50 of antagonism of FGF21 (assay of Example 1) (human Klotho β [4]): 10.9 nM

LETDSMDPFGLVTGLEAVRSPSFEA [FGF19 A26]
IC50 of antagonism of FGF21 (assay of Example 1) (human Klotho β [4]): 17.9 nM

APDVGSSDPLSMVGPSQGRSPSYAS [FGF21 25mer A1]
% max activity of antagonism of FGF21 (pErk1/2, 293 HEK hKLB cells) (human Klotho β [3]): 100%
IC-50 of antagonism of FGF21 (pErk1/2, 293 HEK hKLB cells) (human Klotho β [3]): 33 nM
IC-50 of antagonism of FGF21 (pErk1/2, 293 HEK hKLB cells) (human Klotho β [5]): 0.39 µM

PPDVGSSDPLSMVGPSQGRSPSYAS-NH2 [FGF21 157-181]
% Activity vs C25 (human Klotho β [6]): 100%
IC50 of antagonism of FGF21 (assay of Example 1) (human Klotho β [6]): 283 nM
% max activity of antagonism of FGF21 (pErk1/2, 293 HEK hKLB cells) (human Klotho β [3]): 100%
IC-50 of antagonism of FGF21 (pErk1/2, 293 HEK hKLB cells) (human Klotho β [3]): 168 nM
IC-50 of antagonism of FGF21 (pErk1/2, 293 HEK hKLB cells) (human Klotho β [5]): 0.16 µM
IC50 of antagonism of FGF21 (assay of Example 1) (human Klotho β [4]): 182 nM

PADVGSSDPLSMVGPSQGRSPSYAS [FGF21 25mer A2]
% max activity of antagonism of FGF21 (pErk1/2, 293 HEK hKLB cells) (human Klotho β [3]): 98.5%
IC-50 of antagonism of FGF21 (pErk1/2, 293 HEK hKLB cells) (human Klotho β [3]): 137 nM
IC-50 of antagonism of FGF21 (pErk1/2, 293 HEK hKLB cells) (human Klotho β [5]): 0.62 µM

PPDVGSSDPLSMVGPSQGRSASYAS [FGF21 25mer A21]
IC-50 of antagonism of FGF21 (pErk1/2, 293 HEK hKLB cells) (human Klotho β [2]): 2.57 µM
% max activity of antagonism of FGF21 (pErk1/2, 293 HEK hKLB cells) (human Klotho β [3]): 70.5%
IC-50 of antagonism of FGF21 (pErk1/2, 293 HEK hKLB cells) (human Klotho β [3]): 2240 nM

PPDVGSSDPL[dS]MVGPSQG[dR]SPSYAS-NH2 [FGF21 D11D19]
IC50 of antagonism of FGF21 (assay of Example 1) (human Klotho β [4]): 14.1 nM

PPDVGSSDPLSMVGPSQG[dR]SPSYAS-NH2 [FGF21 D19]
% Activity vs C25 (human Klotho β [6]): 271%
IC50 of antagonism of FGF21 (assay of Example 1) (human Klotho β [6]): 152 nM
IC50 of antagonism of FGF21 (assay of Example 1) (human Klotho β [4]): 52.5 nM

PPDAGSSDPLSMVGPSQGRSPSYAS [FGF21 25mer A4]
IC-50 of antagonism of FGF21 (pErk1/2, 293 HEK hKLB cells) (human Klotho β [2]): 2.69 µM
% max activity of antagonism of FGF21 (pErk1/2, 293 HEK hKLB cells) (human Klotho β [3]): 63.6%
IC-50 of antagonism of FGF21 (pErk1/2, 293 HEK hKLB cells) (human Klotho β [3]): 5930 nM
